Measured values as given in patent US20230372522A1 (KUNMING SINOWAY NATURAL PHARMACEUTICALS, published 2023).

Columns and labels:
[1] = target: T1, CD22 on Daudi cells (Daudi cell line expressing a high level of CD22) (UniProt P20273 20-847, limits assumed); assay: cell-based or functional assay
[2] = target: T1, CD22 on Daudi cells (Daudi cell line …); assay: cell-based or functional assay; remark: listed apart in the source
[3] = target: T2, recombinant human Siglec-2/CD22 Fc chimera protein (R&D systems, Cat #1968-SL) (human, UniProt P20273 20-687); assay: ELISA, immobilized human CD22 Fc chimera
T2 construct: Bought reagent, immobilized antigen in the ELISA; Fc part of the bought chimera not given

[4] = target: T2, recombinant human Siglec-2/CD22 Fc …; assay: ELISA, immobilized human CD22 Fc chimera; remark: listed apart in the source
biotinylated CD22 = biotinylated CD22 (UniProt P20273 20-687, limits assumed, biotinylated (site not stated)); assay: Octet (BLI), biotinylated CD22 on streptavidin biosensors
[5] = target: T2, recombinant human Siglec-2/CD22 Fc …; assay: ELISA, immobilized human CD22 Fc chimera, detection with anti-Pseudomonas exotoxin A antibody

| Binder | In Vitro potency assay (pM): EC50 of Daudi cell death, CCK-8 [1] | In Vitro potency assay (EC50, normalized against HA22) [2] | EC50 [3] | EC50, normalized against HA22 [4] | Kd (biotinylated CD22) | EC50 [5] |
| --- | --- | --- | --- | --- | --- | --- |
| Recombinant immunotoxin VH ver 1 + VL ver 4 (H1L4 by the HmLn naming of paragraph 88) (other, dsFv-PE38 heterodimer) VL: MDIQMTQSPSTLSASVGDRVTITCRASQDISNYLNWFQQRPGQSPRLLIYYTSILHSGVPSRFSGSGSGTDYTLTISSLQPEDFATYYCQQGNTLPWTFGCGTKVEIK MEVQLVESGGGLVKPGGSLRLSCAASGFAFSIYDMSWVRQAPGKCLEWVAYISSGGGTTYYPDSVKGRFTISRENAKNSLYLQMNSLKSEDTAMYYCARHSGYGTHWGVLFAYWGQGTMVTVSSKASGGPEGGSLAALTAHQACHLPLETFTRHRQPRGWEQLEQCGYPVQRLVALYLAARLSWNQVDQVIRNALASPGSGGDLGEAIREQPEQARLALTLAAAESERFVRQGTGNDEAGAANGPADSGDALLERNYPTGAEFLGDGGDVSFSTRGTQNWTVERLLQAHRQLEERGYVFVGYHGTFLEAAQSIVFGGVRARSQDLDAIWRGFYIAGDPALAYGYAQDQEPDARGRIRNGALLRVYVPRSSLPGFYRTSLTLAAPEAAGEVERLIGHPLPLRLDAITGPEEEGGRLETILGWPLAERTVVIPSAIPTDPRNVGGDLDPSSIPDKEQAISALPDYASQPGKPPREDLK | 13.8 pM | 4.12 fold of HA22 | 200 pM | 1.17 fold of HA22 |  |  |
| Recombinant immunotoxin VH ver 2 + HA22 VL (other, dsFv-PE38 heterodimer) VL: MDIQMTQTTSSLSASLGDRVTISCRASQDISNYLNWYQQKPDGTVKLLIYYTSILHSGVPSRFSGSGSGTDYSLTISNLEQEDFATYFCQQGNTLPWTFGCGTKLEIK MEVQLVESGGGLVKPGGSLRLSCAASGFAFSIYDMSWVRQTPEKCLEWVAYISSGGGTTYYPDSVKGRFTISRENAKNSLYLQMNSLKSEDTAMYYCARHSGYGTHWGVLFAYWGQGTMVTVSSKASGGPEGGSLAALTAHQACHLPLETFTRHRQPRGWEQLEQCGYPVQRLVALYLAARLSWNQVDQVIRNALASPGSGGDLGEAIREQPEQARLALTLAAAESERFVRQGTGNDEAGAANGPADSGDALLERNYPTGAEFLGDGGDVSFSTRGTQNWTVERLLQAHRQLEERGYVFVGYHGTFLEAAQSIVFGGVRARSQDLDAIWRGFYIAGDPALAYGYAQDQEPDARGRIRNGALLRVYVPRSSLPGFYRTSLTLAAPEAAGEVERLIGHPLPLRLDAITGPEEEGGRLETILGWPLAERTVVIPSAIPTDPRNVGGDLDPSSIPDKEQAISALPDYASQPGKPPREDLK |  |  | 640 pM | 0.89 fold of HA22 |  |  |
| HA22 (moxetumomab pasudotox; HA22 VH-PE38 + HA22 VL), made in-house (other, also called CAT-8015; HA22 VH / HA22 VL) VL: MDIQMTQTTSSLSASLGDRVTISCRASQDISNYLNWYQQKPDGTVKLLIYYTSILHSGVPSRFSGSGSGTDYSLTISNLEQEDFATYFCQQGNTLPWTFGCGTKLEIK MEVQLVESGGGLVKPGGSLKLSCAASGFAFSIYDMSWVRQTPEKCLEWVAYISSGGGTTYYPDTVKGRFTISRDNAKNTLYLQMSSLKSEDTAMYYCARHSGYGTHWGVLFAYWGQGTLVTVSAKASGGPEGGSLAALTAHQACHLPLETFTRHRQPRGWEQLEQCGYPVQRLVALYLAARLSWNQVDQVIRNALASPGSGGDLGEAIREQPEQARLALTLAAAESERFVRQGTGNDEAGAANGPADSGDALLERNYPTGAEFLGDGGDVSFSTRGTQNWTVERLLQAHRQLEERGYVFVGYHGTFLEAAQSIVFGGVRARSQDLDAIWRGFYIAGDPALAYGYAQDQEPDARGRIRNGALLRVYVPRSSLPGFYRTSLTLAAPEAAGEVERLIGHPLPLRLDAITGPEEEGGRLETILGWPLAERTVVIPSAIPTDPRNVGGDLDPSSIPDKEQAISALPDYASQPGKPPREDLK | 2.72 pM | 1 fold of HA22 | 470 pM | 1 fold of HA22 | 4080 to 5810 pM | 470 pM |
| Recombinant immunotoxin VH ver 1 + VL ver 3 (H1L3 by the HmLn naming of paragraph 88) (other) VL: MDIQMTQSPSTLSASVGDRVTITCRASQDISNYLNWFQQRPGQSPRRLIYYTSILHSGVPSRFSGSGSGTDYTLTISSLQPEDFATYYCQQGNTLPWTFGCGTKVEIK MEVQLVESGGGLVKPGGSLRLSCAASGFAFSIYDMSWVRQAPGKCLEWVAYISSGGGTTYYPDSVKGRFTISRENAKNSLYLQMNSLKSEDTAMYYCARHSGYGTHWGVLFAYWGQGTMVTVSSKASGGPEGGSLAALTAHQACHLPLETFTRHRQPRGWEQLEQCGYPVQRLVALYLAARLSWNQVDQVIRNALASPGSGGDLGEAIREQPEQARLALTLAAAESERFVRQGTGNDEAGAANGPADSGDALLERNYPTGAEFLGDGGDVSFSTRGTQNWTVERLLQAHRQLEERGYVFVGYHGTFLEAAQSIVFGGVRARSQDLDAIWRGFYIAGDPALAYGYAQDQEPDARGRIRNGALLRVYVPRSSLPGFYRTSLTLAAPEAAGEVERLIGHPLPLRLDAITGPEEEGGRLETILGWPLAERTVVIPSAIPTDPRNVGGDLDPSSIPDKEQAISALPDYASQPGKPPREDLK | 57.2 pM | 4.59 fold of HA22 |  |  |  |  |
| H1L2 humanized anti-CD22 recombinant immunotoxin (VH ver 1 + VL ver 2) (other, dsFv-PE38 heterodimer, VH and VL linked by a disulfide bond) VL: MDIQMTQSTSTLSASVGDRVTITCRASQDISNYLNWYQQRPDGSVKLLIYYTSILHSGVPSRFSGSGSGTDYTLTISSLQDEDFATYFCQQGNTLPWTFGCGTKVEIK MEVQLVESGGGLVKPGGSLRLSCAASGFAFSIYDMSWVRQAPGKCLEWVAYISSGGGTTYYPDSVKGRFTISRENAKNSLYLQMNSLKSEDTAMYYCARHSGYGTHWGVLFAYWGQGTMVTVSSKASGGPEGGSLAALTAHQACHLPLETFTRHRQPRGWEQLEQCGYPVQRLVALYLAARLSWNQVDQVIRNALASPGSGGDLGEAIREQPEQARLALTLAAAESERFVRQGTGNDEAGAANGPADSGDALLERNYPTGAEFLGDGGDVSFSTRGTQNWTVERLLQAHRQLEERGYVFVGYHGTFLEAAQSIVFGGVRARSQDLDAIWRGFYIAGDPALAYGYAQDQEPDARGRIRNGALLRVYVPRSSLPGFYRTSLTLAAPEAAGEVERLIGHPLPLRLDAITGPEEEGGRLETILGWPLAERTVVIPSAIPTDPRNVGGDLDPSSIPDKEQAISALPDYASQPGKPPREDLK | 4.58 pM | 1.32 fold of HA22 | 540 pM | 0.81 fold of HA22 | 4660 to 7210 pM | 540 pM |
| Recombinant immunotoxin VH ver 5 + VL ver 4 (H5L4 by the HmLn naming of paragraph 88) (other, dsFv-PE38 heterodimer) VL: MDIQMTQSPSTLSASVGDRVTITCRASQDISNYLNWFQQRPGQSPRLLIYYTSILHSGVPSRFSGSGSGTDYTLTISSLQPEDFATYYCQQGNTLPWTFGCGTKVEIK MEVQLVESGGGLVKPGGSLRLSCAASGFAFSIYDMSWIRQAPGKCLEWVAYISSGGGTTYYPGSVKGRFTISRENAKNSLYLQMNSLRSEDTAVYYCARHSGYGTHWGVLFAYWGQGTMVTVSSKASGGPEGGSLAALTAHQACHLPLETFTRHRQPRGWEQLEQCGYPVQRLVALYLAARLSWNQVDQVIRNALASPGSGGDLGEAIREQPEQARLALTLAAAESERFVRQGTGNDEAGAANGPADSGDALLERNYPTGAEFLGDGGDVSFSTRGTQNWTVERLLQAHRQLEERGYVFVGYHGTFLEAAQSIVFGGVRARSQDLDAIWRGFYIAGDPALAYGYAQDQEPDARGRIRNGALLRVYVPRSSLPGFYRTSLTLAAPEAAGEVERLIGHPLPLRLDAITGPEEEGGRLETILGWPLAERTVVIPSAIPTDPRNVGGDLDPSSIPDKEQAISALPDYASQPGKPPREDLK | 34.9 pM | 10.7 fold of HA22 | 2150 pM | 12.5 fold of HA22 |  |  |
| Recombinant immunotoxin VH ver 4 + VL ver 4 (H4L4 by the HmLn naming of paragraph 88) (other, dsFv-PE38 heterodimer; The fusion entry is used here) VL: MDIQMTQSPSTLSASVGDRVTITCRASQDISNYLNWFQQRPGQSPRLLIYYTSILHSGVPSRFSGSGSGTDYTLTISSLQPEDFATYYCQQGNTLPWTFGCGTKVEIK MEVQLVESGGGLVKPGGSLRLSCAASGFAFSIYDMSWIRQAPGKCLEWVAYISSGGGTTYYPGSVKGRFTISRENAKNSLYLQMNSLRAGDTAVYYCARHSGYGTHWGVLFAYWGQGTMVTVSSKASGGPEGGSLAALTAHQACHLPLETFTRHRQPRGWEQLEQCGYPVQRLVALYLAARLSWNQVDQVIRNALASPGSGGDLGEAIREQPEQARLALTLAAAESERFVRQGTGNDEAGAANGPADSGDALLERNYPTGAEFLGDGGDVSFSTRGTQNWTVERLLQAHRQLEERGYVFVGYHGTFLEAAQSIVFGGVRARSQDLDAIWRGFYIAGDPALAYGYAQDQEPDARGRIRNGALLRVYVPRSSLPGFYRTSLTLAAPEAAGEVERLIGHPLPLRLDAITGPEEEGGRLETILGWPLAERTVVIPSAIPTDPRNVGGDLDPSSIPDKEQAISALPDYASQPGKPPREDLK |  |  | 6730 pM | 39.1 fold of HA22 |  |  |
| H2L2 humanized anti-CD22 recombinant immunotoxin (VH ver 2 + VL ver 2) (other, dsFv-PE38 heterodimer) VL: MDIQMTQSTSTLSASVGDRVTITCRASQDISNYLNWYQQRPDGSVKLLIYYTSILHSGVPSRFSGSGSGTDYTLTISSLQDEDFATYFCQQGNTLPWTFGCGTKVEIK MEVQLVESGGGLVKPGGSLRLSCAASGFAFSIYDMSWVRQTPEKCLEWVAYISSGGGTTYYPDSVKGRFTISRENAKNSLYLQMNSLKSEDTAMYYCARHSGYGTHWGVLFAYWGQGTMVTVSSKASGGPEGGSLAALTAHQACHLPLETFTRHRQPRGWEQLEQCGYPVQRLVALYLAARLSWNQVDQVIRNALASPGSGGDLGEAIREQPEQARLALTLAAAESERFVRQGTGNDEAGAANGPADSGDALLERNYPTGAEFLGDGGDVSFSTRGTQNWTVERLLQAHRQLEERGYVFVGYHGTFLEAAQSIVFGGVRARSQDLDAIWRGFYIAGDPALAYGYAQDQEPDARGRIRNGALLRVYVPRSSLPGFYRTSLTLAAPEAAGEVERLIGHPLPLRLDAITGPEEEGGRLETILGWPLAERTVVIPSAIPTDPRNVGGDLDPSSIPDKEQAISALPDYASQPGKPPREDLK | 4.26 pM | 1.23 fold of HA22 | 560 pM | 1.1 fold of HA22 | 5010 to 7020 pM | 560 pM |
